B1: Twister Ribozyme (parent)
chain: AACACUGCCAAUGCCGGUCCCAAGCCCGGAUAAAAGUGGAGGGGGCGG

Variants of: B1
Test: self-cleavage, relative activity (ratio to wild type); higher = more cleavage; co-transcriptional

Variant	self-cleavage
AACACUGCCAAUGCCGGUCCCAAGCCCGAUUAAAAGUGGAGGGGGCGG [G29A A30U]	0.709
AACACUGCCAAUGCCGGUCCCAAGCCCGAAUGAAAGUGGAGGGGGCGG [G29A A32G]	0.84
AACACUGCCAAUGCCGGUCCCAAGCCCGAAUACAAGUGGAGGGGGCGG [G29A A33C]	0.768
AACACUGCCAAUGCCGGUCCCAAGCCCGAAUAUAAGUGGAGGGGGCGG [G29A A33U]	0.759
AACACUGCCAAUGCCGGUCCCAAGCCCGAAUAACAGUGGAGGGGGCGG [G29A A34C]	0.282
AACACUGCCAAUGCCGGUCCCAAGCCCGAAUAAUAGUGGAGGGGGCGG [G29A A34U]	0.833
AACACUGCCAAUGCCGGUCCCAAGCCCGAAUAAACGUGGAGGGGGCGG [G29A A35C]	0.762
AACACUGCCAAUGCCGGUCCCAAGCCCGAAUAAAUGUGGAGGGGGCGG [G29A A35U]	0.887
AACACUGCCAAUGCCGGUCCCAAGCCCGAAUAAAAGUGGAGGGGGGGG [G29A C46G]	0.838
AACACUGCCAAUGCCGGUCCCAAGCCCGAAUAAAAUUGGAGGGGGCGG [G29A G36U]	0.265
AACACUGCCAAUGCCGGUCCCAAGCCCGAAUAAAAGUAGAGGGGGCGG [G29A G38A]	0.772
AACACUGCCAAUGCCGGUCCCAAGCCCGAAUAAAAGUCGAGGGGGCGG [G29A G38C]	0.7
AACACUGCCAAUGCCGGUCCCAAGCCCGAAUAAAAGUGAAGGGGGCGG [G29A G39A]	0.381
AACACUGCCAAUGCCGGUCCCAAGCCCGAAUAAAAGUGCAGGGGGCGG [G29A G39C]	0.166
AACACUGCCAAUGCCGGUCCCAAGCCCGAAUAAAAGUGGAAGGGGCGG [G29A G41A]	0.452
AACACUGCCAAUGCCGGUCCCAAGCCCGAAUAAAAGUGGACGGGGCGG [G29A G41C]	0.22
AACACUGCCAAUGCCGGUCCCAAGCCCGAAUAAAAGUGGAGCGGGCGG [G29A G42C]	0.46
AACACUGCCAAUGCCGGUCCCAAGCCCGAAUAAAAGUGGAGGGGACGG [G29A G45A]	0.724
AACACUGCCAAUGCCGGUCCCAAGCCCGAAUAAAAGUGGAGGGGUCGG [G29A G45U]	0.578
AACACUGCCAAUGCCGGUCCCAAGCCCGAAUAAAAGUGGAGGGGGCGC [G29A G48C]	1.1
AACACUGCCAAUGCCGGUCCCAAGCCCGAAUAAAAGUGGAGGGGGCGU [G29A G48U]	0.916
AACACUGCCAAUGCCGGUCCCAAGCCCGAAAAAAAGUGGAGGGGGCGG [G29A U31A]	1.17
AACACUGCCAAUGCCGGUCCCAAGCCCGAACAAAAGUGGAGGGGGCGG [G29A U31C]	0.986
AACACUGCCAAUGCCGGUCCCAAGCCCGAAGAAAAGUGGAGGGGGCGG [G29A U31G]	0.926
AACACUGCCAAUGCCGGUCCCAAGCCCGAAUAAAAGCGGAGGGGGCGG [G29A U37C]	0.444
AACACUGCCAAUGCCGGUCCCAAGCCCGCGUAAAAGUGGAGGGGGCGG [G29C A30G]	0.91
AACACUGCCAAUGCCGGUCCCAAGCCCGCUUAAAAGUGGAGGGGGCGG [G29C A30U]	1.1

Variant	self-cleavage
AACACUGCCAAUGCCGGUCCCAAGCCCGCAUCAAAGUGGAGGGGGCGG [G29C A32C]	0.662
AACACUGCCAAUGCCGGUCCCAAGCCCGCAUGAAAGUGGAGGGGGCGG [G29C A32G]	0.519
AACACUGCCAAUGCCGGUCCCAAGCCCGCAUAGAAGUGGAGGGGGCGG [G29C A33G]	0.573
AACACUGCCAAUGCCGGUCCCAAGCCCGCAUAUAAGUGGAGGGGGCGG [G29C A33U]	0.579
AACACUGCCAAUGCCGGUCCCAAGCCCGCAUAAUAGUGGAGGGGGCGG [G29C A34U]	0.292
AACACUGCCAAUGCCGGUCCCAAGCCCGCAUAAACGUGGAGGGGGCGG [G29C A35C]	0.701
AACACUGCCAAUGCCGGUCCCAAGCCCGCAUAAAGGUGGAGGGGGCGG [G29C A35G]	0.544
AACACUGCCAAUGCCGGUCCCAAGCCCGCAUAAAUGUGGAGGGGGCGG [G29C A35U]	0.885
AACACUGCCAAUGCCGGUCCCAAGCCCGCAUAAAAGUGGCGGGGGCGG [G29C A40C]	0.153
AACACUGCCAAUGCCGGUCCCAAGCCCGCAUAAAAGUGGUGGGGGCGG [G29C A40U]	0.101
AACACUGCCAAUGCCGGUCCCAAGCCCGCAUAAAAGUGGAGGGGGAGG [G29C C46A]	0.708
AACACUGCCAAUGCCGGUCCCAAGCCCGCAUAAAAGUGGAGGGGGGGG [G29C C46G]	0.586
AACACUGCCAAUGCCGGUCCCAAGCCCGCAUAAAAGUGGAGGGGGUGG [G29C C46U]	0.769
AACACUGCCAAUGCCGGUCCCAAGCCCGCAUAAAAAUGGAGGGGGCGG [G29C G36A]	0.188
AACACUGCCAAUGCCGGUCCCAAGCCCGCAUAAAACUGGAGGGGGCGG [G29C G36C]	0.122
AACACUGCCAAUGCCGGUCCCAAGCCCGCAUAAAAGUAGAGGGGGCGG [G29C G38A]	0.796
AACACUGCCAAUGCCGGUCCCAAGCCCGCAUAAAAGUCGAGGGGGCGG [G29C G38C]	0.736
AACACUGCCAAUGCCGGUCCCAAGCCCGCAUAAAAGUGCAGGGGGCGG [G29C G39C]	0.14
AACACUGCCAAUGCCGGUCCCAAGCCCGCAUAAAAGUGGAAGGGGCGG [G29C G41A]	0.108
AACACUGCCAAUGCCGGUCCCAAGCCCGCAUAAAAGUGGAUGGGGCGG [G29C G41U]	0.125
AACACUGCCAAUGCCGGUCCCAAGCCCGCAUAAAAGUGGAGGAGGCGG [G29C G43A]	0.119
AACACUGCCAAUGCCGGUCCCAAGCCCGCAUAAAAGUGGAGGCGGCGG [G29C G43C]	0.118
AACACUGCCAAUGCCGGUCCCAAGCCCGCAUAAAAGUGGAGGGAGCGG [G29C G44A]	0.791
AACACUGCCAAUGCCGGUCCCAAGCCCGCAUAAAAGUGGAGGGCGCGG [G29C G44C]	0.696
AACACUGCCAAUGCCGGUCCCAAGCCCGCAUAAAAGUGGAGGGGCCGG [G29C G45C]	0.211
AACACUGCCAAUGCCGGUCCCAAGCCCGCAUAAAAGUGGAGGGGGCGA [G29C G48A]	0.56
AACACUGCCAAUGCCGGUCCCAAGCCCGCAUAAAAGUGGAGGGGGCGC [G29C G48C]	0.688
